Usually Kd stands for the free concentration of one partner at which half of the binding sites on the other are occupied at equilibrium, for simple one-to-one binding.

Test [1] has as its target Type-I collagen (VitroCol, human) (human) (UniProt P02452).
Test [2] has the same target. Kind of test: SPR; collagen immobilised on CM5 chip at around 8000 RU; OMD or muteins injected (0.125-2 µM), 30 µl/min; PBS pH 7.4, 0.005% Tween-20, 20 °C; KD by steady state analysis; binding response at 2 µM. A general note: SPR reads the build-up and loss of mass on a sensor chip optically.
In test [3] the target is T1, Type-I collagen (VitroCol, human) (human, UniProt P02452 162-1218; P08123 80-1119). Kind of test: cell-based or functional assay.
T1 sequence (P02452 162-1218, chain 1 of 2): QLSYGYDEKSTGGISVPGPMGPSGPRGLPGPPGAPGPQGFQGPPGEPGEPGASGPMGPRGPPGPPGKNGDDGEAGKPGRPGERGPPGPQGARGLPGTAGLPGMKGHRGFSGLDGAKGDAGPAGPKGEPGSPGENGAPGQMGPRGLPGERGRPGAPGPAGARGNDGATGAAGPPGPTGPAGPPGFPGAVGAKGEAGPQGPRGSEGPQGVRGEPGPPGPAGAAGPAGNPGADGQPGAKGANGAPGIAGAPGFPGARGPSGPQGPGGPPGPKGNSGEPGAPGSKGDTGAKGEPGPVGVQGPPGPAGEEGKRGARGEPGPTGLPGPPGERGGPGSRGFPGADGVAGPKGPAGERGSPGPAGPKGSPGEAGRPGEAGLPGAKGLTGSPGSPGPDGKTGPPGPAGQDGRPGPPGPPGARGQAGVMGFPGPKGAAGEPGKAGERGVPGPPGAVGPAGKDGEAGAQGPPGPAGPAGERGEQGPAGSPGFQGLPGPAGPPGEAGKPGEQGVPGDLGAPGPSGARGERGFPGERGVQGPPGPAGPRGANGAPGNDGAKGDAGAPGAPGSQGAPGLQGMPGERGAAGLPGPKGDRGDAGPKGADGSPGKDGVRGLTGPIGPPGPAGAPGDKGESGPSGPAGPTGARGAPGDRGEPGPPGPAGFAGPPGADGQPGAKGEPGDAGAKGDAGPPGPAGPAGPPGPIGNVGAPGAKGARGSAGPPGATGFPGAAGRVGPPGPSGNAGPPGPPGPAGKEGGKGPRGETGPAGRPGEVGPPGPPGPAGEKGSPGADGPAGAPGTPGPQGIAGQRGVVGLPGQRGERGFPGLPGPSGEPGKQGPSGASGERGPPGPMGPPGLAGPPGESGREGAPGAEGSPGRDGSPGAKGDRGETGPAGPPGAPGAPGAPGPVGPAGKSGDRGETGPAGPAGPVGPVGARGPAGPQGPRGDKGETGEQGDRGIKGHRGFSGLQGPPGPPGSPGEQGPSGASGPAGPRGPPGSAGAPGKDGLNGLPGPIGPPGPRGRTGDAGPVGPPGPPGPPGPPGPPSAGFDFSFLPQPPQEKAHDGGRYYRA
T1 sequence (P08123 80-1119, chain 2 of 2): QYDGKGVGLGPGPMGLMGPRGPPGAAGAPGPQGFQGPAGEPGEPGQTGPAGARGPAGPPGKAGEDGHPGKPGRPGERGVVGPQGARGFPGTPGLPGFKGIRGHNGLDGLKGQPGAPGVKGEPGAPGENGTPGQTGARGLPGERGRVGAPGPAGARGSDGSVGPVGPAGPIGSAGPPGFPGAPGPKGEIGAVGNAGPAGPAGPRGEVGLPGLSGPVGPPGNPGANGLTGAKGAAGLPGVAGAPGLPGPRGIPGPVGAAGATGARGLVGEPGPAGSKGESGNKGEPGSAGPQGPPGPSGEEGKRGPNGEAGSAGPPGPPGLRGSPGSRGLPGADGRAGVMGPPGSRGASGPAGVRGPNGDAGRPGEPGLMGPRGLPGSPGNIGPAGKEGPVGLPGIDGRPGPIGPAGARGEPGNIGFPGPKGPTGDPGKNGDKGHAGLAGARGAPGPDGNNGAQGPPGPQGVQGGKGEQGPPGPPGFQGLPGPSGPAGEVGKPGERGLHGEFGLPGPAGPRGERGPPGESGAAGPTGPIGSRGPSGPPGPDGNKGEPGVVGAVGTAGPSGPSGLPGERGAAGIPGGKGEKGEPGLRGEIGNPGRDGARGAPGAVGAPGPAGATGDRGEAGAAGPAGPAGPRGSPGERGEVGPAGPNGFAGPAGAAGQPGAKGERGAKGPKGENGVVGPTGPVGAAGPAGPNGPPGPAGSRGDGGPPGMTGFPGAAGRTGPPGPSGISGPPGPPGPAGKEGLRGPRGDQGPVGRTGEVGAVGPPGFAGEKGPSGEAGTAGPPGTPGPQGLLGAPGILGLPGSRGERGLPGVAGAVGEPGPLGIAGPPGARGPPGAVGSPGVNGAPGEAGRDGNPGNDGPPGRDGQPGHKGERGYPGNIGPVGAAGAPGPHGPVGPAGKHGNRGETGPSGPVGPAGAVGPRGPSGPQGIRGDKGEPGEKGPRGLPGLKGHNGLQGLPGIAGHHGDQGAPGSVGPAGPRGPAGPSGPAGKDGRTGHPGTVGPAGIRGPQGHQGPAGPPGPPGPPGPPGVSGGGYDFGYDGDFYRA
Test [4] deals with T1, Type-I collagen (VitroCol, human). Kind of test: SPR; temperature dependence of the dissociation constant, van't Hoff analysis; values given at 32 °C. Conditions: both partners purified.
Test [5] has the same target. Kind of test: SPR; collagen immobilised on CM5 chip at around 8000 RU; OMD or muteins injected (0.125-2 µM), 30 µl/min; PBS pH 7.4, 0.005% Tween-20, 20 °C; KD by steady state analysis; binding response at 2 µM. The note with it: both partners purified.

Type-I collagen (VitroCol, human) (human), sequence (P02452 162-1218, chain 1 of 2): as the sequence (P02452 162-1218, chain 1 of 2) above
Type-I collagen (VitroCol, human) (human), sequence (P08123 80-1119, chain 2 of 2, further chain): as the sequence (P08123 80-1119, chain 2 of 2) above

In test [1], “Chimeric OMD (chOMD): N-terminal region of the leucine-rich repeat domain of internalin B fused to a large portion of OMD (from UniProt Q99983 117-364)” gave an IC50 (µM) of inhibition of collagen fibril formation (normalized kobs, 1 µM collagen, PBS pH 7.4, 30 °C) of 0.22 μM; a kobs (per h) of collagen fibril formation with 0, 0.016, 0.08, 0.4, 2 and 10 μM chOMD (0.89 down to 0.00) of 0.89 per h. Further, in test [2], the Binding (RU) at 2 µM came to 118 RU and the Kd is 25.4 µM.
In test [2], “chOMD D254R (from UniProt Q99983 117-364)” yielded a Binding (RU) at 2 µM of 74.8 RU and a Kd of 22.3 µM.
In test [2], “chOMD D271R (from UniProt Q99983 117-364)” displayed a Binding (RU) at 2 µM of 71 RU and a Kd of 25.6 µM.
For “chOMD E173R (from UniProt Q99983 117-364)”, in that order: 118 RU and 51.4 µM.
Regarding “chOMD E225R (from UniProt Q99983 117-364)”, in test [2], the Binding (RU) at 2 µM is 106 RU and the Kd is 29.1 µM.
For the molecule “chOMD E284A (from UniProt Q99983 117-364)”, in test [1], the IC50 (µM) of inhibition of collagen fibril formation (normalized kobs, 1 µM collagen, PBS pH 7.4, 30 °C) came out at 0.32 μM; the kobs (per h) of collagen fibril formation with 0, 0.016, 0.08, 0.4, 2 and 10 μM chE284A (1.02 down to 0.00003) stood at 1.02 per h. Moreover, in test [2], the Binding (RU) at 2 µM stood at 57.4 RU and the Kd was 78.3 µM.
Turning to “chOMD E284R (from UniProt Q99983 117-364)”, in test [1], the IC50 (µM) of inhibition of collagen fibril formation (normalized kobs, 1 µM collagen, PBS pH 7.4, 30 °C) was 0.61 μM; the kobs (per h) of collagen fibril formation with 0, 0.016, 0.08, 0.4, 2 and 10 μM chE284R (0.90 down to 0.00028) turned out to be 0.9 per h. Also, in test [2], the Binding (RU) at 2 µM turned out to be 22.3 RU and the Kd amounted to 32000 µM.
In test [1], “chOMD E284R/E303R (from UniProt Q99983 117-364)” gave an IC50 (µM) of inhibition of collagen fibril formation (normalized kobs, 1 µM collagen, PBS pH 7.4, 30 °C) of 2.18 μM; a kobs (per h) of collagen fibril formation with 0, 0.016, 0.08, 0.4, 2 and 10 μM chE284R/E303R (1.00 down to 0.65) of 1 per h.
In test [1], “chOMD E303A (from UniProt Q99983 117-364)” came in with an IC50 (µM) of inhibition of collagen fibril formation (normalized kobs, 1 µM collagen, PBS pH 7.4, 30 °C) of 0.37 μM; a kobs (per h) of collagen fibril formation with 0, 0.016, 0.08, 0.4 and 2 μM chE303A (1.32 down to 0.51; n.d. at 10 μM) of 1.32 per h.
For “chOMD E303R (from UniProt Q99983 117-364)”, in test [1], the IC50 (µM) of inhibition of collagen fibril formation (normalized kobs, 1 µM collagen, PBS pH 7.4, 30 °C) was 1.87 μM; the kobs (per h) of collagen fibril formation with 0, 0.016, 0.08, 0.4, 2 and 10 μM chE303R (1.35 down to 0.10) amounted to 1.35 per h. In test [2], this molecule had a Binding (RU) at 2 µM of 3.7 RU and a dissociation constant (Kd) of 72.4 µM.
For “chOMD E311R (from UniProt Q99983 117-364)”, in test [2], the Binding (RU) at 2 µM came to 22.6 RU and the Kd came to 5.48 µM.
The corresponding values for “chOMD N278R (from UniProt Q99983 117-364)” are 47.4 RU and 14.3 µM.

B1: Osteomodulin (OMD), human, recombinant with C-terminal FLAG-tag (natural protein, UniProt Q99983 21-421, looked up)
chain: QYETYQWDEDYDQEPDDDYQTGFPFRQNVDYGVPFHQYTLGCVSECFCPTNFPSSMYCDNRKLKTIPNIPMHIQQLYLQFNEIEAVTANSFINATHLKEINLSHNKIKSQKIDYGVFAKLPNLLQLHLEHNNLEEFPFPLPKSLERLLLGYNEISKLQTNAMDGLVNLTMLDLCYNYLHDSLLKDKIFAKMEKLMQLNLCSNRLESMPPGLPSSLMYLSLENNSISSIPEKYFDKLPKLHTLRMSHNKLQDIPYNIFNLPNIVELSVGHNKLKQAFYIPRNLEHLYLQNNEIEKMNLTVMCPSIDPLHYHHLTYIRVDQNKLKEPISSYIFFCFPHIHTIYYGEQRSTNGQTIQLKTQVFRRFPDDDDESEDHDDPDNAHESPEQEGAEGHFDLHYYENQE
notes: osteomodulin (OMD), human, without residues 1-20 (signal peptide), residues 21-421; Its own signal peptide was replaced by the sp1-2 signal peptide for secretion; Carbohydrate is modelled in the crystal structure; Monomer by SEC-MALS; also called full-length OMD; WT OMD; source: Sf9 cells, baculovirus, secreted; not shown: FLAG, C-terminal, kept
Consider B1, for which the “IC50 (µM) of inhibition of collagen fibril formation (normalized kobs, 1 µM collagen, PBS pH 7.4, 30 °C)” value in test [3] is 0.08 μM. Also, in test [4], the Kd came out at 12 µM and the dH was determined as 7.9 kcal/mol. Further, in test [5], the Kd stood at 24.6 µM.

B2: OMD E284R/E303R (double mutant in the construct of full-length OMD) (natural protein, human, UniProt Q99983 21-421, looked up)
chain: QYETYQWDEDYDQEPDDDYQTGFPFRQNVDYGVPFHQYTLGCVSECFCPTNFPSSMYCDNRKLKTIPNIPMHIQQLYLQFNEIEAVTANSFINATHLKEINLSHNKIKSQKIDYGVFAKLPNLLQLHLEHNNLEEFPFPLPKSLERLLLGYNEISKLQTNAMDGLVNLTMLDLCYNYLHDSLLKDKIFAKMEKLMQLNLCSNRLESMPPGLPSSLMYLSLENNSISSIPEKYFDKLPKLHTLRMSHNKLQDIPYNIFNLPNIVRLSVGHNKLKQAFYIPRNLRHLYLQNNEIEKMNLTVMCPSIDPLHYHHLTYIRVDQNKLKEPISSYIFFCFPHIHTIYYGEQRSTNGQTIQLKTQVFRRFPDDDDESEDHDDPDNAHESPEQEGAEGHFDLHYYENQE
With B2, the “IC50 (µM) of inhibition of collagen fibril formation (normalized kobs, 1 µM collagen, PBS pH 7.4, 30 °C)” value in test [3] is 0.29 μM.

These data come from publication PMC6123635, “Molecular basis for governing the morphology of type-I collagen fibrils by Osteomodulin” (Communications Biology, 2018).
